Results on one molecule are retold here after patent US20210355204A1.

Test [1] addresses TGFβ1 (human) (UniProt P01137). Kind of test: cell-based or functional assay.
Test [2] deals with TGFβ2 (human) (UniProt P61812). Description: cell-based or functional assay.
Test [3] deals with TGFβ3 (human) (UniProt P10600). Description: cell-based or functional assay.
Test [4] concerns the target TGFβ1 (human) (UniProt P01137). Description: SPR (Biacore 2000), TGFβ immobilised on CM1 chip, antibody injected. On the technique in general: Surface plasmon resonance follows binding to a sensor surface in real time, without labels.
Test [5] deals with TGFβ2 (human) (UniProt P61812). Described as above.
Test [6] has as its target TGFβ3 (human) (UniProt P10600). The test is described as above.
Test [7] addresses TGFβ1 (human) (UniProt P01137). Description: SPR (Biacore A100), BM-1 captured on anti-mouse Fc CM5 chip, TGFβ injected.
In test [8] the target is TGFβ2 (human) (UniProt P61812). The description is as above.
Test [9] concerns the target TGFβ3 (human) (UniProt P10600). The test is described as above.

Chain of TGFβ1 (human) (P01137 279-390 limits assumed): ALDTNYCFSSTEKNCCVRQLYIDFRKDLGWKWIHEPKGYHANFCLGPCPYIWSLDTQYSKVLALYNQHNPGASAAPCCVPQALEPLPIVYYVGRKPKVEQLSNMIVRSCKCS
Chain of TGFβ3 (human) (P10600 301-412 limits assumed): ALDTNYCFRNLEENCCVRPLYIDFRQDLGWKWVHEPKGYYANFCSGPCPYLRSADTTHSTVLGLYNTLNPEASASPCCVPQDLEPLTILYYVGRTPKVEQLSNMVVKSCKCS
Chain of TGFβ2 (human) (P61812 303-414 limits assumed): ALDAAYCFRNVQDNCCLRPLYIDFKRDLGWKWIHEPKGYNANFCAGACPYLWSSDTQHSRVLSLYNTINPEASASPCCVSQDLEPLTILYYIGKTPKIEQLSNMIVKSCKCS

B1: BM-1 (1D11, R&D Systems MAB1835) (antibody, from another filing, V domains shown)
VH: QVQLQQSGPELVRPGASVKLSCKASGYIFITYWMNWVKQRPGQGLEWIGQIFPASGSTNYNEMFEGKATLTVDTSSSTAYMQLSSLTSEDSAVYYCARGDGNYALDAMDYWGQGTSVTVSS
VL: DIVLTQSPASLAVSLGQRATISCRASESVDSYGNSFMHWYQQKSGQPPKLLIYLASNLESGVPARFSGSGSRTDFTLTIDPVEADDAATYYCQQNNEDPLTFGAGTKLEIK
The Kd is the equilibrium constant for the complex coming apart. Low readings indicate higher affinity, high ones lower affinity. Usually koff stands for the first-order rate constant of dissociation. Read a low koff as slow dissociation. For orientation: kon means the rate constant with which the complex forms. As for B1, the HT-2 cell neutralization assay, IC50 in test [1] was 220; in test [3], 196. Moreover, the IL-11 Release Assay - IC50 (A549 cells) in test [1] is 0.292 µg/mL; in test [2] it was 0.498 µg/mL; in test [3], 0.012 µg/mL. The Kd in [4] was 0.304 nM; in test [5], 0.977 nM; in test [6], 0.188 nM; in test [7] it was 0.072 nM; in [8], 0.17 nM; in test [9], 0.048 nM. For the same molecule, the koff in [4] was found to be 0.0039 s⁻¹; in test [5], 0.00684 s⁻¹; in test [6], 0.000946 s⁻¹; in test [7], 0.0014 s⁻¹; in [8], 0.002 s⁻¹; in [9], 0.00031 s⁻¹. Also, the on-rate (kon) is 1.28e+07 M⁻¹ s⁻¹ in test [4]; 7e+06 M⁻¹ s⁻¹ in test [5]; 5.05e+06 M⁻¹ s⁻¹ in test [6]; 1.9e+07 M⁻¹ s⁻¹ in test [7]; 1.1e+07 M⁻¹ s⁻¹ in test [8]; 6.5e+06 M⁻¹ s⁻¹ in test [9].
